Numbered stars: 1 amine (or outer) side, 2 acyl side, 3 side chain; on linkers, the order of the positions; unused ones are H or OH. Bridge positions count the residues as written; N and C are the ends. Ends that are not written are not given here. Phenylene(1,4-NHCOCH2)2 = O=C(C[*:1])Nc1ccc(NC(=O)C[*:2])cc1; 8‑residue Gly‑rich linker = not defined here
How the values were obtained:
[1] = molecular target: human PD-L1 (residues 18-239) with C-terminal human IgG Fc-Avi tag (human), Q9NZQ7; assay: SPR
[2] = molecular target: RNF31 PUB domain protein (residues 1-179), biotinylated (Homo sapiens (Human)) (UniProt Q96EP0); assay: phage display screen on bead-immobilized RNF31 PUB, NGS
[3] = molecular target: MDM2 p53-binding domain + beta-catenin Armadillo domain (the two proteins bridged in the ternary complex) (human) (UniProt Q00987); assay: direct FP, ternary complex of β-catenin (Armadillo domain) and MDM2 (p53-binding domain)
[4] = molecular target: VHL-ELOBC (human), P40337; assay: phage display screen, NGS; column head 300 nM (row is one cell short of the head, alignment unsure)
[5] = molecular target: T1, CUL1 N-terminal domain (residues 15-410, V367R/L371D) (human), Q13616; assay: phage display screen, bead-bound target, spike-in-normalized NGS; target 1000 nM
[6] = molecular target: T1, CUL1 N-terminal domain (residues …); assay: phage display screen, bead-bound target, spike-in-normalized NGS; target 10 nM
[7] = molecular target: T1, CUL1 N-terminal domain (residues …); assay: phage display screen, bead-bound target, spike-in-normalized NGS; target 1000 nM (second column)
[8] = molecular target: T1, CUL1 N-terminal domain (residues …); assay: phage display screen, bead-bound target, spike-in-normalized NGS; target 100 nM
[9] = molecular target: T1, CUL1 N-terminal domain (residues …); assay: phage display screen, bead-bound target, spike-in-normalized NGS; target 300 nM
[10] = molecular target: T1, CUL1 N-terminal domain (residues …); assay: phage display screen, bead-bound target, spike-in-normalized NGS; target 30 nM

Sequence of VHL-ELOBC (human), P40337 (P40337 54-213 limits assumed, chain 1 of 3): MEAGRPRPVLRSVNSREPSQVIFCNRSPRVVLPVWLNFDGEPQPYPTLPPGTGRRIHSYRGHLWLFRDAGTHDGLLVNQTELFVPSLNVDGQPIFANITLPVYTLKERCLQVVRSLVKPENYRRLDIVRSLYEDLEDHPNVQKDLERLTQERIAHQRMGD
Sequence of VHL-ELOBC (human), P40337 (Q15370 1-104 limits assumed, chain 2 of 3, further chain): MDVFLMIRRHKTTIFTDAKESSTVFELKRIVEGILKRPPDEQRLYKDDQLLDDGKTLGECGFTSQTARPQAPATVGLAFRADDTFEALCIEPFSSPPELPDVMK
Sequence of VHL-ELOBC (human), P40337 (Q15369 17-112 limits assumed, chain 3 of 3, further chain): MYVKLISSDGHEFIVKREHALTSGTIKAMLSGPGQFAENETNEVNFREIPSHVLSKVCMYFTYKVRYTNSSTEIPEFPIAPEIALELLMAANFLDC
Sequence of RNF31 PUB domain protein (residues 1-179), biotinylated (Homo sapiens (Human)) (Q96EP0 1-179): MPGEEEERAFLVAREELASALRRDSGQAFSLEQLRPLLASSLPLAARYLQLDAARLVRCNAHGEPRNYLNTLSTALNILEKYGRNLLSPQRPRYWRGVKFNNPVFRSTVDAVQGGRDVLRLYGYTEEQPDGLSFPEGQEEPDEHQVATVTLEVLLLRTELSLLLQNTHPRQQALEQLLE
Sequence of human PD-L1 (residues 18-239) with C-terminal human IgG Fc-Avi tag (human), Q9NZQ7 (Q9NZQ7 18-239): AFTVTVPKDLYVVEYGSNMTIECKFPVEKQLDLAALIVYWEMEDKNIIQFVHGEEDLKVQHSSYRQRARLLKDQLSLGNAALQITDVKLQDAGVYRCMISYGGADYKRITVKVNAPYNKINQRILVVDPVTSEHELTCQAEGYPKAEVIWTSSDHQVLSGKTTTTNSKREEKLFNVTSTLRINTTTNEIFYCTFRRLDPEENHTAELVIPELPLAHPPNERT
Sequence of MDM2 p53-binding domain + beta-catenin Armadillo domain (the two proteins bridged in the ternary complex) (human) (Q00987 17-111, chain 1 of 2): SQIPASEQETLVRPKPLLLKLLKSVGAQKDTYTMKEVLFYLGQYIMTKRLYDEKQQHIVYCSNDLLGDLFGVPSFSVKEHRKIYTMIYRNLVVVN
Sequence of MDM2 p53-binding domain + beta-catenin Armadillo domain (the two proteins bridged in the ternary complex) (human) (chain, as listed by the source, chain 2 of 2): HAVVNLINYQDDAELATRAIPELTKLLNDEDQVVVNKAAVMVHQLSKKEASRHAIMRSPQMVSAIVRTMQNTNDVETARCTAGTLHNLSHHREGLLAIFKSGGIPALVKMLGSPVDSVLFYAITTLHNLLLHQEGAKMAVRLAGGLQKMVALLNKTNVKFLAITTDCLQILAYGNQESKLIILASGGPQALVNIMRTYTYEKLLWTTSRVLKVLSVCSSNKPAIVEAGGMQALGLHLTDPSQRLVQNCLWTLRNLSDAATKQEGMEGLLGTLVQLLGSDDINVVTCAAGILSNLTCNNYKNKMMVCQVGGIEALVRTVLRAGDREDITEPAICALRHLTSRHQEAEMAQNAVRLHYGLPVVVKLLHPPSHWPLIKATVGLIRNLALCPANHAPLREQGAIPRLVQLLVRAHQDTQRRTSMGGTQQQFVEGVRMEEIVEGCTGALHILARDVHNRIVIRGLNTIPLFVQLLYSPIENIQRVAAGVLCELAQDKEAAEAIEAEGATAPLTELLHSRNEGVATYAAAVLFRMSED

## DPAAADCQWAAFLCRVY (modifications not checked) [FP30790]
[1]
  Kd: 10 µM

## DPADWTCVLAAHNCLYT-{8‑residue Gly‑rich linker-M13 pIII} (peptide, not shown: large carriers, linker 7-14 via Phenylene(1,4-NHCOCH2)2 (inferred); reading uncertain)
[2]
  normalized phage count at Target Concentration 10 (normalized phage counts): 0
  normalized phage count at Target Concentration 30 (normalized phage counts): 0
  normalized phage count at Target Concentration 100 (normalized phage counts): 0
  normalized phage count at Target Concentration 300 (normalized phage counts): 1
  normalized phage count at Target Concentration 1000 (normalized phage counts): 3
  normalized phage count at Target Concentration 1000 (second column) (normalized phage counts): 9

## DPAHILCEMAARNCLYN-{8‑residue Gly‑rich linker-M13 pIII} (peptide, not shown: large carriers, linker 7-14 via Phenylene(1,4-NHCOCH2)2 (inferred); reading uncertain)
[2]
  normalized phage count at Target Concentration 10 (normalized phage counts): 3
  normalized phage count at Target Concentration 30 (normalized phage counts): 1
  normalized phage count at Target Concentration 100 (normalized phage counts): 1
  normalized phage count at Target Concentration 300 (normalized phage counts): 1
  normalized phage count at Target Concentration 1000 (normalized phage counts): 10
  normalized phage count at Target Concentration 1000 (second column) (normalized phage counts): 2

B1: H329 (peptide)
peptide: Ac-PMEQQAICFQAAWMCLADDWT-NH2
modifications: bridge 8-15; not fully specified (bridges); printed as Ac-PMEQQAICFQAAWMCLADDWT-NH2
[3]
  EC50: 0.014 µM

## DPAWWHCVAAATQCDQR (modifications not checked)
[4]
  phage count (normalised phage counts): 79

## DPAVMECDWAATICDIF (modifications not checked) [phage-displayed Helicon …]
[5]
  normalized phage count (normalized counts): 477
[6]
  normalized phage count (normalized counts): 0
[7]
  normalized phage count (normalized counts): 419
[8]
  normalized phage count (normalized counts): 154
[9]
  normalized phage count (normalized counts): 402
[10]
  normalized phage count (normalized counts): 2

## DPAWWHCVDAALQCDYY (modifications not checked)
[4]
  phage count (normalised phage counts): 40

## DPAWYACVDAAYFCDYQ (modifications not checked)
[4]
  phage count (normalised phage counts): 35
